Values belong to the binder of their own block, whether it stands above or below them.
Experiments:
[1] = molecular target: T1, rabbit Fc-tagged recombinant extracellular human ICOS (human, UniProt Q9Y6W8 21-140); experiment: SPR (Biacore), compared with human ICOS-L binding to dimeric human ICOS (FIG. 15B)
T1 construct: also called dimeric human ICOS; not shown: rabbit Fc tag
T1 sequence: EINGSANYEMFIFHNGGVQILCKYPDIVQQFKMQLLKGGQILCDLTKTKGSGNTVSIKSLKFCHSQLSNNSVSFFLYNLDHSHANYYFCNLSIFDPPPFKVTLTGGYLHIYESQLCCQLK

[2] = molecular target: T2, human ICOS ligand (B7-H2) (human, UniProt O75144 19-258, limits assumed); experiment: flow cytometry competition: activated T cells pre-incubated with recombinant ICOS-L (B7-H2), then stained with H2L5; CD8+ cells
T2 construct: it is treated as the same molecule; also called CD275; recombinant ICOS-L (R&D Systems)
T2 sequence (looked up): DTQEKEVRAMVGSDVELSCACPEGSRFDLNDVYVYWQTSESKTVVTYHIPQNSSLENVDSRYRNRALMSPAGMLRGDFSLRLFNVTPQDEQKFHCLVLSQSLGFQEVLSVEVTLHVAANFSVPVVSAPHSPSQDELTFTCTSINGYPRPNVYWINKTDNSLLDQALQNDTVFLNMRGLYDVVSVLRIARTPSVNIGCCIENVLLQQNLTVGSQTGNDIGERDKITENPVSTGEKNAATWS

fold higher affinity than the ICOS-L/ICOS interaction [1]: ~17 fold
B1: H2L5 IgG4PE (antibody, V domains shown)
VH: QVQLVQSGAEVKKPGSSVKVSCKASGYTFTDYAMHWVRQAPGQGLEWMGLISIYSDHTNYNQKFQGRVTITADKSTSTAYMELSSLRSEDTAVYYCGRNNYGNYGWYFDVWGQGTTVTVSS
VL: EIVLTQSPATLSLSPGERATLSCSASSSVSYMHWYQQKPGQAPRLLIYDTSKLASGIPARFSGSGSGTDYTLTISSLEPEDFAVYYCFQGSGYPYTFGQGTKLEIK
notes: Human IgG4 with Fc mutations S228P and L235E (EU numbering), called IgG4PE; humanized variant of murine clone 422.2; also called ICOS IgG4PE; H2L5 (ICOS) IgG4PE

binding result [2]: binds
B2: human ICOS on activated human T cells (receptor)
chain: EINGSANYEMFIFHNGGVQILCKYPDIVQQFKMQLLKGGQILCDLTKTKGSGNTVSIKSLKFCHSQLSNNSVSFFLYNLDHSHANYYFCNLSIFDPPPFKVTLTGGYLHIYESQLCCQLKFWLPIGCAAFVVVCILGCILICWLTKKKYSSSVHDPNGEYMFMRAVNTAKKSRLTDVTL
notes: the isoform 1 entry is named; also called cell surface ICOS; ICOS+ T cells (CD4, CD8, Treg)

Reference: patent US20200190194A1 (GlaxoSmithKline, published 2020)
